According to patent publication US20200109190A1 (AstraZeneca / MedImmune, published 2020):
Where “and” joins values, the source holds several entries; their conditions need not be identical. Identical values can stand only once. Like-named read-outs stand apart in the source and are kept apart here.

What was measured:
LukSF [1] = molecular target: T1, LukSF (Staphylococcus aureus); test: cell-based or functional assay
HlgAB [2] = molecular target: T2, HlgAB (Staphylococcus aureus, UniProt P0A074 30-309); test: cell-based or functional assay
T2 sequence 1: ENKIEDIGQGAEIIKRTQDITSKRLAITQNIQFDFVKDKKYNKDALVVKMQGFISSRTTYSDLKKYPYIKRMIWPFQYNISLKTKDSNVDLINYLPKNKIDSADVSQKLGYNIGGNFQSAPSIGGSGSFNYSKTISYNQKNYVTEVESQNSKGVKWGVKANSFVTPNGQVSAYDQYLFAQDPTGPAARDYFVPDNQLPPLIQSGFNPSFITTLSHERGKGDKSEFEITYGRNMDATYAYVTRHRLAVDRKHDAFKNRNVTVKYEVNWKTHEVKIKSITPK
T2 sequence 2: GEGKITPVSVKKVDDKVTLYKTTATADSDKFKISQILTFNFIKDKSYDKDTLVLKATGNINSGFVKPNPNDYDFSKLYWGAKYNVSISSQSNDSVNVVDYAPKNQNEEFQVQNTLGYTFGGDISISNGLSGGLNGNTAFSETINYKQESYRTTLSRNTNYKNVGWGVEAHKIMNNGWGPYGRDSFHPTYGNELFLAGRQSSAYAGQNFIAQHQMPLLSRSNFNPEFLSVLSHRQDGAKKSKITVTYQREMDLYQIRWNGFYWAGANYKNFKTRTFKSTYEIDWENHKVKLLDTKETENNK

S. aureus LukF [3] = molecular target: T3, S. aureus LukF (Staphylococcus aureus); test: method not stated at Table 8; BLI (Octet) is described in Example 4
S. aureus LukD = molecular target: T4, S. aureus LukD (Staphylococcus aureus, UniProt Q2FXB1 27-327)
T4 sequence: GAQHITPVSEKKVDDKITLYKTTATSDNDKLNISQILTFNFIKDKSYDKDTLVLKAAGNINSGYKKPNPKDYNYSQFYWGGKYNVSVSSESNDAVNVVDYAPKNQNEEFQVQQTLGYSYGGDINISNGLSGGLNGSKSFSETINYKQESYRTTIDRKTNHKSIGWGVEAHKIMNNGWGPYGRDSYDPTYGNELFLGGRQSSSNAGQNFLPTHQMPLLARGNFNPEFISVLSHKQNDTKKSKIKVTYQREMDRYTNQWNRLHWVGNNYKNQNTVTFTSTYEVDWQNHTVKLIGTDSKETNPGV

S. aureus LukF [4] = molecular target: T3, S. aureus LukF
S. aureus HlgB = molecular target: T5, S. aureus HlgB (Staphylococcus aureus, UniProt P0A075 27-325)
T5 sequence: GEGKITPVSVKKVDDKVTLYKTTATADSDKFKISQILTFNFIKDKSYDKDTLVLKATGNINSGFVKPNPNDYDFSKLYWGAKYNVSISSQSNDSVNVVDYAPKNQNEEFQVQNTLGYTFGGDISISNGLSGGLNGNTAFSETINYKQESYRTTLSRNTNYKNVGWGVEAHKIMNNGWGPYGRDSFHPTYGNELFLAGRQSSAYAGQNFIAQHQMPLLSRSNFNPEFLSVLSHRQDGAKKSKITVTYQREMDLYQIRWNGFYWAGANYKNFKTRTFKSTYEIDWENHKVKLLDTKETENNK

LukSF [5] = molecular target: T1, LukSF; test: cell-based or functional assay; remark: listed apart in the source
HlgAB [6] = molecular target: T2, HlgAB; test: cell-based or functional assay; remark: listed apart in the source
LukSF [7] = molecular target: T1, LukSF; test: cell-based or functional assay; remark: listed apart in the source
HlgAB [8] = molecular target: T2, HlgAB; test: cell-based or functional assay; remark: listed apart in the source

| Binder | IC50 (LukSF) HL-60; Dark sample (LukSF [1]) [µg/mL] | IC50 (LukSF) HL-60; Light sample (LukSF [1]) [µg/mL] | IC50 (HIgAB) HL-60; Dark sample (HlgAB [2]) [µg/mL] | IC50 (HIgAB) HL-60; Light sample (HlgAB [2]) [µg/mL] | Kd (S. aureus LukF [3]) [nM] | Kd (S. aureus LukD) [nM] | koff (S. aureus LukD) [s⁻¹] | kon (S. aureus LukD) | Kd (S. aureus LukF [4]) | koff (S. aureus LukF [4]) | kon (S. aureus LukF [4]) | Kd (S. aureus HlgB) [nM] | koff (S. aureus HlgB) [s⁻¹] | kon (S. aureus HlgB) | IC50 Fold loss vs. WT (LukSF) (LukSF [5]) [fold] | IC50 for LukSF (LukSF [5]) [µg/mL] | IC50 Fold loss vs. WT (HIgAB) (HlgAB [6]) [fold] | IC50 for HIgAB (HlgAB [6]) [µg/mL] | IC50 (LukSF) HL-60 (LukSF [7]) [µg/mL] | IC50 (HIgAB) HL-60 (HlgAB [8]) [µg/mL] |
| --- | --- | --- | --- | --- | --- | --- | --- | --- | --- | --- | --- | --- | --- | --- | --- | --- | --- | --- | --- | --- |
| SAN481-YTE (antibody, also called QD1) heavy: QLQLVESGGGAVQPGRSLKLSCAASGFNFSTYAMHWVRQAPGRGLEWVAVTSFDGSNEYYIDSVKGRFTISRDNTKNTLYLQMTGLRVEDTALYFCARDEYTGGWYSVGYWGQGTLVTVSSASTKGPSVFPLAPSSKSTSGGTAALGCLVKDYFPEPVTVSWNSGALTSGVHTFPAVLQSSGLYSLSSVVTVPSSSLGTQTYICNVNHKPSNTKVDKRVEPKSCDKTHTCPPCPAPELLGGPSVFLFPPKPKDTLYITREPEVTCVVVDVSHEDPEVKFNWYVDGVEVHNAKTKPREEQYNSTYRVVSVLTVLHQDWLNGKEYKCKVSNKALPAPIEKTISKAKGQPREPQVYTLPPSREEMTKNQVSLTCLVKGFYPSDIAVEWESNGQPENNYKTTPPVLDSDGSFFLYSKLTVDKSRWQQGNVFSCSVMHEALHNHYTQKSLSLSPGK light: not shown | 0.209 | 0.233 | 0.704 | 0.821 | 0.0148 | < 0.001 | < 1e-07 | 277000 M⁻¹ s⁻¹ and 294000 M⁻¹ s⁻¹ | 0.232 nM and 0.226 nM | 6.55e-05 s⁻¹ and 6.47e-05 s⁻¹ | 283000 M⁻¹ s⁻¹ and 287000 M⁻¹ s⁻¹ | < 0.001 | < 1e-07 | 240000 M⁻¹ s⁻¹ and 265000 M⁻¹ s⁻¹ | 0.938 | 0.15 | 0.95 | 0.54 | 0.15 | 0.54 |
| SAN481-TF-YTE (antibody, V domains shown, also called QD4; SAN481-VH28T100E-YTE) VH: QLQLVESGGGAVQPGRSLKLSCAASGFTFSTYAMHWVRQAPGRGLEWVAVTSFDGSNEYYIDSVKGRFTISRDNTKNTLYLQMTGLRVEDTALYFCARDEYTGGFYSVGYWGQGTLVTVSS VL: QSVLTQPPSASGTPGQRVTISCSGNSYNIGSNSVYWYQQFPGTAPKLLISRSIQRPSGVPDRFSGSKSVTSASLAISGLRSEDEADYYCAAWDDSLRAWVFGGGTKLTVLG | – | – | – | – | 1.21 | – | – | – | – | – | – | – | – | – | 5.07 | 0.811 | 0.775 | 0.441 | 0.81 | 0.44 |
